Data from the supplement of paper PMC9112550, “Optimization of the antimicrobial peptide Bac7 by deep mutational scanning” (BMC Biology, 2022).

test system: Escherichia coli TOP10; assay: shrunken log2 fold change of peptide-encoding DNA abundance (4.5 h post-induction vs induction); higher = less antimicrobial activity (less host growth inhibition); conditions: time post-induction: 4.5 h; library: site-saturation at positions 5, 18, 19, 20
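Further: peptides expressed intracellularly from a pBAD plasmid library in pooled LB shake-flask culture, induced with 0.3% L-arabinose, DNA abundance read by NGS, three biological replicates, DESeq2 with apeglm shrinkage.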

Row | Sequence | shrunken log2 fold change
1 | RRIRKRPPRLPRPRPRPAMVPRP | 0.87
2 | RRIRERPPRLPRPRPRPIRDPRP | 0.0201
3 | RRIRDRPPRLPRPRPRPKDMPRP | 0.0342
4 | RRIRPRPPRLPRPRPRPMPTPRP | 0.22
5 | RRIRYRPPRLPRPRPRPTSFPRP | -0.255
6 | RRIRNRPPRLPRPRPRPWIHPRP | 0.0731
7 | RRIRVRPPRLPRPRPRPPKMPRP | -0.0776
8 | RRIRGRPPRLPRPRPRPDPEPRP | 0.593
9 | RRIRSRPPRLPRPRPRPNVTPRP | -0.0212
10 | RRIRHRPPRLPRPRPRPGSDPRP | -0.014
11 | RRIRWRPPRLPRPRPRPAQEPRP | 0.149
12 | RRIRDRPPRLPRPRPRPDCFPRP | 1.04
13 | RRIRCRPPRLPRPRPRPYSWPRP | -0.77
14 | RRIRRRPPRLPRPRPRPTKHPRP | 0.124
15 | RRIRSRPPRLPRPRPRPMRYPRP | 0.215
16 | RRIRHRPPRLPRPRPRPLRFPRP | -0.172
17 | RRIRERPPRLPRPRPRPACLPRP | -0.0938
18 | RRIRTRPPRLPRPRPRPMDHPRP | -0.31
19 | RRIRQRPPRLPRPRPRPREHPRP | -0.117
20 | RRIRMRPPRLPRPRPRPCHQPRP | -0.0062
21 | RRIRLRPPRLPRPRPRPITRPRP | 0.177
22 | RRIRYRPPRLPRPRPRPILFPRP | -0.945
23 | RRIRPRPPRLPRPRPRPPTAPRP | 0.189
24 | RRIRIRPPRLPRPRPRPGQNPRP | -0.0607
25 | RRIRSRPPRLPRPRPRPTLIPRP | -0.0693

Row | Sequence | shrunken log2 fold change
26 | RRIRLRPPRLPRPRPRPQDIPRP | 0.133
27 | RRIRDRPPRLPRPRPRPFMSPRP | -0.0203
28 | RRIRARPPRLPRPRPRPHQNPRP | 0.409
29 | RRIRERPPRLPRPRPRPASIPRP | -0.327
30 | RRIRERPPRLPRPRPRPQYNPRP | -0.927
31 | RRIRHRPPRLPRPRPRPNTMPRP | -0.905
32 | RRIRWRPPRLPRPRPRPYHWPRP | -0.236
33 | RRIRIRPPRLPRPRPRPNTCPRP | -0.85
34 | RRIRNRPPRLPRPRPRPRKYPRP | -0.258
35 | RRIRKRPPRLPRPRPRPHLFPRP | 0.205
36 | RRIRFRPPRLPRPRPRPHVEPRP | -0.00526
37 | RRIRGRPPRLPRPRPRPFHTPRP | -0.161
38 | RRIRDRPPRLPRPRPRPHFKPRP | -0.148
39 | RRIRARPPRLPRPRPRPGYHPRP | -0.14
40 | RRIRPRPPRLPRPRPRPIRFPRP | -0.119
41 | RRIRPRPPRLPRPRPRPRMCPRP | 0.152
42 | RRIRHRPPRLPRPRPRPRLPPRP | 0.131
43 | RRIRPRPPRLPRPRPRPKWFPRP | 0.0432
44 | RRIRYRPPRLPRPRPRPAEEPRP | 0.0567
45 | RRIRIRPPRLPRPRPRPISPPRP | 0.0361
46 | RRIRARPPRLPRPRPRPAICPRP | 0.252
47 | RRIRPRPPRLPRPRPRPWSIPRP | -0.0637
48 | RRIRCRPPRLPRPRPRPLFEPRP | 0.193
49 | RRIRPRPPRLPRPRPRPIVDPRP | 0.0804
50 | RRIRSRPPRLPRPRPRPNDMPRP | -0.193

Row | Sequence | shrunken log2 fold change
51 | RRIRFRPPRLPRPRPRPRVHPRP | -0.0984
52 | RRIRRRPPRLPRPRPRPWVPPRP | -0.0825
53 | RRIRNRPPRLPRPRPRPHPEPRP | 0.00649
54 | RRIRYRPPRLPRPRPRPKYPPRP | -0.0165
55 | RRIRMRPPRLPRPRPRPERVPRP | 2.69
56 | RRIRWRPPRLPRPRPRPQMRPRP | 0.147
57 | RRIRDRPPRLPRPRPRPAYKPRP | -0.456
58 | RRIRARPPRLPRPRPRPRPCPRP | 0.426
59 | RRIRRRPPRLPRPRPRPADLPRP | -0.141
60 | RRIRYRPPRLPRPRPRPVGKPRP | -1.51
61 | RRIRVRPPRLPRPRPRPTDQPRP | -0.0162
62 | RRIRERPPRLPRPRPRPGNHPRP | -0.141
63 | RRIRRRPPRLPRPRPRPVFTPRP | 0.188
64 | RRIRWRPPRLPRPRPRPDPKPRP | -0.0134
65 | RRIRRRPPRLPRPRPRPNRRPRP | 0.231
66 | RRIRQRPPRLPRPRPRPSETPRP | -0.216
67 | RRIRWRPPRLPRPRPRPKELPRP | 0.501
68 | RRIRTRPPRLPRPRPRPYDIPRP | -0.795
69 | RRIRNRPPRLPRPRPRPMQPPRP | -0.000687
70 | RRIRLRPPRLPRPRPRPIRCPRP | -0.0375
71 | RRIRKRPPRLPRPRPRPAQRPRP | 0.946
72 | RRIRSRPPRLPRPRPRPAACPRP | 0.222
73 | RRIRCRPPRLPRPRPRPLHSPRP | -0.383
74 | RRIRRRPPRLPRPRPRPYLTPRP | 0.0355
75 | RRIRNRPPRLPRPRPRPIDTPRP | -0.0154
